In patent US11160886B2, “Method for labeling of sensitive and thermosensitive targeting biomolecules with technetium based compounds” (BRACCO IMAGING SPA, priority 2016, dated 2021):

Tests used:
[1] = test system: αvβ3 positive M21 and αvβ3 negative M21L cell lines; assay: Cell uptake and internalization; assay type: cell-based, human; details: M21 and M21L cells, 37° C., 90 min
Method: Cell Studies of complex 9 were conducted on M21 and M21L cells grown in RPMI1640 (Gibco Life Technologies). Expression of αvβ3 and of αvβ5 in the cells lines was analyzed by flow cytometry.
Cellular uptakes of the radiolabeled peptide, were assessed in suspension at 37° C. in human melanoma αvβ3 positive M21 and negative M21L cell lines. Preliminary studies were performed in order to set the experimental conditions to avoid cell damage and/or death during uptake experiments. […] Afterward, 1 ml of the cell suspension (1×10^6 cells/ml) was incubated with intermittent agitation with 10 μCi (10 μL) of ^99mTc complexes. At 90 min, the tubes were vortexed, the cells were transferred in Eppendorf microcentrifuge tube (1.5 ml) and the incubation was interrupted by centrifugation (3000 rpm for 5 min at 10° C.). […] After centrifugation (3000 rpm for 10 min at 10° C.) the supernatant was separated from the pellet, each fraction was collected, placed in a separated counting tube and the activity was determined using a counter (Cobra II, Packard) to determinate both the cell uptake and internalized fraction.
The uptake of complexes is expressed as percentage cell uptake of the total activity on 10^6 cells (% cell uptake/10^6 cells). […]

[2] = Biodistribution in healthy rats; assay type: in vivo, Sprague-Dawley rats; details: for Biodistribution: Blood / Biodistribution: Heart / Biodistribution: Intestine / Biodistribution: Kidneys / Biodistribution: Liver / Biodistribution: Lungs / Biodistribution: Muscle / Biodistribution: Spleen / Biodistribution: Stomach / Biodistribution: Urine: healthy rats
Method: Before injection, ^99mTc complexes were purified using a reversed-phase C18 Sep-Pack cartridge to remove the excess of unlabeled ligands. After purification, the activity recovered was further diluted with PBS to obtain a final solution that is <0.5% in EtOH content. The RCP and the stability of the purified complexes were evaluated prior to in vivo administration and for the succeeding 18 h.
Biodistribution in healthy rats. Biodistribution in healthy rats was performed on complex 1, complex 2 and complex 9 in order to evaluate their pharmacokinetic profile and elimination pathways as well as their resistance to in vivo metabolism. Female Sprague-Dawley rats weighing 180-200 g were anesthetized with an intramuscular injection of a mixture of Zoletil (40 mg/kg) and xylazine (2 mg/kg). A jugular vein was surgically exposed and 100 μl (300-370 kBq) of the solution containing the selected [^99mTc(N)(PNP3OH)]-compound was injected. The rats (n=3) were scarified by cervical dislocation at different times after injection. The blood was withdrawn from the heart with a syringe immediately after death and quantified. Organs were excised, rinsed in saline, weighed, and the activity was counted in a Nal well counter.

[^99mTc(N)(PNP3OH)(Cys-cRGDfK)]^+ [Complex 9]
Recognition by molecular target (cellular uptake, FIG. 10) [1]: recognized by the corresponding molecular target
Pharmacokinetic profile: blood clearance ([2]; healthy animals, within the first 60 min p.i.): rapid blood clearance
Biodistribution: Blood ([2]; 30 min): 0.46 ± 0.17 % IA/g
Biodistribution: Heart ([2]; 30 min): 0.25 ± 0.06 % IA/g
Biodistribution: Intestine ([2]; 30 min): 1.29 ± 0.13 % IA/g
Biodistribution: Kidneys ([2]; 30 min): 4.50 ± 1.59 % IA/g
Biodistribution: Liver ([2]; 30 min): 0.90 ± 0.16 % IA/g
Biodistribution: Lungs ([2]; 30 min): 0.62 ± 0.15 % IA/g
Biodistribution: Muscle ([2]; 30 min): 0.17 ± 0.01 % IA/g
Biodistribution: Spleen ([2]; 30 min): 0.41 ± 0.10 % IA/g
Biodistribution: Stomach ([2]; 30 min): 0.62 ± 0.14 % IA/g
Biodistribution: Urine ([2]; 30 min): 28.98 ± 7.22 % IA/g
Biodistribution: Blood ([2]; 60 min): 0.25 ± 0.03 % IA/g
Biodistribution: Heart ([2]; 60 min): 0.15 ± 0.00 % IA/g
Biodistribution: Intestine ([2]; 60 min): 1.95 ± 0.97 % IA/g
Biodistribution: Kidneys ([2]; 60 min): 4.20 ± 0.35 % IA/g
Biodistribution: Liver ([2]; 60 min): 0.80 ± 0.06 % IA/g
Biodistribution: Lungs ([2]; 60 min): 0.49 ± 0.01 % IA/g
Biodistribution: Muscle ([2]; 60 min): 0.13 ± 0.01 % IA/g
Biodistribution: Spleen ([2]; 60 min): 0.39 ± 0.04 % IA/g
Biodistribution: Stomach ([2]; 60 min): 0.64 ± 0.09 % IA/g
Biodistribution: Urine ([2]; 60 min): 28.16 ± 2.49 % IA/g
Biodistribution: Blood ([2]; 120 min): 0.16 ± 0.11 % IA/g
Biodistribution: Heart ([2]; 120 min): 0.13 ± 0.05 % IA/g
Biodistribution: Intestine ([2]; 120 min): 3.76 ± 0.17 % IA/g
Biodistribution: Kidneys ([2]; 120 min): 3.13 ± 1.69 % IA/g
Biodistribution: Liver ([2]; 120 min): 0.75 ± 0.19 % IA/g
Biodistribution: Lungs ([2]; 120 min): 0.37 ± 0.15 % IA/g
Biodistribution: Muscle ([2]; 120 min): 0.12 ± 0.05 % IA/g
Biodistribution: Spleen ([2]; 120 min): 0.34 ± 0.05 % IA/g
Biodistribution: Stomach ([2]; 120 min): 0.62 ± 0.09 % IA/g
Biodistribution: Urine ([2]; 120 min): 34.58 ± 10.09 % IA/g
Biodistribution: Blood ([2]; 240 min): 0.12 ± 0.01 % IA/g
Biodistribution: Heart ([2]; 240 min): 0.22 ± 0.13 % IA/g
Biodistribution: Intestine ([2]; 240 min): 3.94 ± 0.91 % IA/g
Biodistribution: Kidneys ([2]; 240 min): 7.24 ± 0.55 % IA/g
Biodistribution: Liver ([2]; 240 min): 0.88 ± 0.04 % IA/g
Biodistribution: Lungs ([2]; 240 min): 0.42 ± 0.06 % IA/g
Biodistribution: Muscle ([2]; 240 min): 0.11 ± 0.00 % IA/g
Biodistribution: Spleen ([2]; 240 min): 0.47 ± 0.04 % IA/g
Biodistribution: Stomach ([2]; 240 min): 0.61 ± 0.11 % IA/g
Biodistribution: Urine ([2]; 240 min): 24.91 ± 1.00 % IA/g
